Laboratory results as given in paper PMC11496107.

B1: LXRα-VP16 (wild-type liver X receptor-α fused to VP16) [human] / Gal4-SRC1 (aa 570-780) [not stated] (parent)
chain 1: MSLWLGAPVPDIPPDSAVELWKPGAQDASSQAQGGSSCILREEARMPHSAGGTAGVGLEAAEPTALLTRAEPPSEPTEIRPQKRKKGPAPKMLGNELCSVCGDKASGFHYNVLSCEGCKGFFRRSVIKGAHYICHSGGHCPMDTYMRRKCQECRLRKCRQAGMREECVLSEEQIRLKKLKRQEEEQAHATSLPPRASSPPQILPQLSPEQLGMIEKLVAAQQQCNRRSFSDRLRVTPWPMAPDPHSREARQQRFAHFTELAIVSVQEIVDFAKQLPGFLQLSREDQIALLKTSAIEVMLLETSRRYNPGSESITFLKDFSYNREDFAKAGLQVEFINPIFEFSRAMNELQLNDAEFALLIAISIFSADRPNVQDQLQVERLQHTYVEALHAYVSIHHPHDRLMFPRMLMKLVSLRTLSSVHSEQVFALRLQDKKLPPLLSEIWDVHE
chain 2: PSRLNIQPAKAESKDNKEIASILNEMIQSDNSSSDGKPLDSGLLHNNDRLSDGDSKYSQTSHKLVQLLTTTAEQQLRHADIDTSCKDVLSCTGTSNSASANSSGGSCPSSHSSLTERHKILHRLLQEGSPSDITTLSVEPDKKDSASTSVSVTGQVQGNSSIKLELDASKKKESKDHQLLRYLLDKDEKDLRSTPNLSLDDVKVKVEKKEQ

Variants of: B1
Assay: mammalian two-hybrid assay (luciferase reporter, HEK293 cells)
Conditions: with Gal4-SRC1 (aa 570-780); GOF sub-panel; highest T0901317 (T09) dose plotted (rightmost point); 20 h; parent: 100; read off a plot

| percent of parent [% WT] | Variant |
| --- | --- |
| 100 | chain 1 M346V |

Same assay, conditions: with Gal4-SRC1 (aa 570-780); GOF sub-panel; untreated condition (leftmost point, plotted an order of magnitude below the lowest T09 dose); 20 h; parent: 100; read off a plot

| percent of parent [% WT] | Variant |
| --- | --- |
| 18 | chain 1 M346V |
